The source of these data is patent publication US11046988B2, “Process for the modification of a glycoprotein using a β-(1,4)-N-acetylgalactosaminyl transferase or a mutant thereof” (Synaffix B.V., priority 2014, dated 2021).

A short description of the data set: Coupled glycosyltransferase assay (R&D Systems Glycosyltransferase Activity Kit, malachite green, 620 nm): transfer of F2-GalNAz to GlcNAc. Format: biochemical. Further details: Data from the determination of the specific activity: unit not given here. As to conditions: for Data from the determination of the specific activity: GlcNAc 20 mM, UDP-F2-GalNAz 500 μM, 20 min, room temperature, plate read at 620 nm; for specific activity: UDP-F2-GalNAz 500 μM to GlcNAc 20 mM, 5 mM MgCl2 and 5 mM MnCl2, pH 7.5, linear regression; for transferase activity compared with GalT(Y289L): transfer of F2-GalNAz from UDP-F2-GalNAz (18) to GlcNAc, FIG. 7 / FIG. 8. The source says:
In brief, the glycosyltransferase kit determines the activity of a particular glycosyltransferase by means of a coupled assay that detects the release of liberated UDP upon transfer of the donor sugar (from the sugar-UDP nucleotide) to an acceptor sugar. In more detail, the UDP that is liberated upon transfer of sugar is hydrolyzed by a particular enzyme (CD39L3/rectonucleoside triphosphate diphosphohydrolase-3, also known as NTPDase-3) thereby generating UMP and one equivalent of phosphate (Pi). The latter phosphate in turn is detected by malachite green, which is also added to the mixture. A green color develops in proportion to the amount of inorganic phosphate released and the absorbance of the color at 620 nm is measured as a direct measure of the activity of the glycosyltransferase. In the present case, transfer of F2-GalNAz from the UDP-substrate to GlcNAc on the protein is accompanied by release of UDP, which is hydrolyzed by CD39L3 and the generated phosphate. Preferably, the derived or wild type β-(1,4)-GalNAcT enzyme used in the process according to the invention has at least 30%, 33%, 50%, 75%, 100%, 150%, 200%, or more preferably at least 300% of the UDP-F2-GalNAz transfer activity as compared to the UDP-F2-GalNAz transfer activity of the β-(1,4)-galactosyltransferase mutant enzyme Bos taurus GalT-Y289L (SEQ ID NO: 1), wherein the transfer activity is assessed using the R&D Systems Glycosyltransferase Activity Kit and applying the conditions as indicated in detail in Example 18 and using equal amounts of the enzyme to be tested and β-(1,4)-galactosyltransferase mutant enzyme Bos taurus GalT-Y289L (SEQ ID NO: 1).
Specific activity of enzymes was determined by a coupled glycosyltransferase procedure as described by Wu et al. in Glycobiology 2010, 21, 723-733, incorporated by reference, and commercially available as a kit from R&D system.
In short, a glycosyltransferase reaction was carried out in 50 μL of reaction buffer (25 mM Tris, 150 mM NaCl, 5 mM MgCl2 and 5 mM MnCl2, pH 7.5) in a 96-well plate at room temperature for 20 min. To determine the kinetic parameters of a glycosyltransferase, multiple reactions with varying amounts of the enzyme were carried out simultaneously (0.01, 0.02, 0.04, 0.06, 0.08, 0.10 and 0.12 μg of enzyme) in the presence of fixed amounts of all other components (GlcNAc: 20 mM, UDP-F2-GalNAz: 500 μM), including the coupling phosphatase 1 (ENTPD3/CD39L3) (2.5 μL of 20 ng/μL solution). A well containing all components except for the enzyme served as a blank control. The reactions were initiated by adding the substrates and phosphatase to the enzyme and terminated by the addition of 30 μL of Malachite reagent A and 100 μL of water to each well. The color was developed by the addition of 30 μL of Malachite reagent B to each well followed by gentle mixing and incubation at room temperature for 20 min. Following color development, the plate was read at 620 nm with a multi-well plate reader. A phosphate standard curve was also performed to determine the conversion factor between the absorbance and the inorganic phosphate contents. Preparation of UDP-F2-GalNAz is described in Example 13.
The specific activity of the GalNAcTs described herein were compared to GalT(Y289L), an enzyme known to transfer UDP-GalNAz as previously disclosed in WO 2007/095506 and WO 2008/029281 (both Invitrogen Corporation).
A graph depicting the conversion (in pmol/min/m) plotted against the amount of enzyme is shown in FIG. 7 (for Table 1) and FIG. 8 (for Table 2). From these plots specific activities were calculated by linear regression. […]

Turning to “CeGalNAcT(I257A): truncated C. elegans GalNAcT mutant, isoleucine 257 to alanine, SEQ ID NO: 12”, the specific activity worked out at 240 pmol/min/µg and the “transferase activity compared with GalT(Y289L)” value was “significantly higher”. For the same molecule, for the setting “0.01 μg enzyme”, the “Data from the determination of the specific activity” value (“Data from the determination” for short) is given as 0.009. Also, the “Data from the determination” value (0.02 μg enzyme) is reported as 0.032. Also, the “Data from the determination” value (0.04 μg enzyme) amounted to 0.049. In addition, the “Data from the determination” value (0.06 μg enzyme) was 0.078. Further, the “Data from the determination” value (0.08 μg enzyme) was 0.097. Besides, the “Data from the determination” value (0.1 μg enzyme) amounted to 0.119. Besides, the “Data from the determination” value (0.12 μg enzyme) amounted to 0.152.

On to “CeGalNAcT(I257L): truncated C. elegans GalNAcT mutant, isoleucine 257 to leucine, SEQ ID NO: 10”, for which the specific activity turned out to be 381 pmol/min/µg and the “transferase activity compared with GalT(Y289L)” value is listed as “significantly higher”. For the same molecule, under “0.01 μg enzyme”, the “Data from the determination” value was 0.02. In addition, the “Data from the determination” value (0.02 μg enzyme) came out at 0.038. The “Data from the determination” value (0.04 μg enzyme) was determined as 0.081. For the setting “0.06 μg enzyme”, the “Data from the determination” value was found to be 0.136. Also, under “0.08 μg enzyme”, the “Data from the determination” value worked out at 0.153. For the same molecule, the “Data from the determination” value (0.1 μg enzyme) is on record as 0.205. Also, the “Data from the determination” value (0.12 μg enzyme) is 0.245.

As to “CeGalNAcT-His: CeGalNAcT(30-383) with C-terminal His6-tag, SEQ ID NO: 14”, the specific activity was determined as 332 pmol/min/µg and the “transferase activity compared with GalT(Y289L)” value was “significantly higher”. Moreover, the “Data from the determination” value (0.01 μg enzyme) was 0.024. For the setting “0.02 μg enzyme”, the “Data from the determination” value is 0.044. The “Data from the determination” value (0.04 μg enzyme) came out at 0.129. For the setting “0.06 μg enzyme”, the “Data from the determination” value turned out to be 0.161. Besides, where the note is “0.08 μg enzyme”, the “Data from the determination” value is 0.191. Where the note is “0.1 μg enzyme”, the “Data from the determination” value is 0.226. In addition, the “Data from the determination” value (0.12 μg enzyme) came out at 0.285.

B1: GalT(Y289L): β-(1,4)-galactosyltransferase mutant enzyme Bos taurus GalT-Y289L (SEQ ID NO: 1), prior-art comparator (protein)
chain: MKFREPLLGGSAAMPGASLQRACRLLVAVCALHLGVTLVYYLAGRDLRRLPQLVGVHPPLQGSSHGAAAIGQPSGELRLRGVAPPPPLQNSSKPRSRAPSNLDAYSHPGPGPGPGSNLTSAPVPSTTTRSLTACPEESPLLVGPMLIEFNIPVDLKLIEQQNPKVKLGGRYTPMDCISPHKVAIIILFRNRQEHLKYWLYYLHPMVQRQQLDYGIYVINQAGESMFNRAKLLNVGFKEALKDYDYNCFVFSDVDLIPMNDHNTYRCFSQPRHISVAMDKFGFSLPYVQLFGGVSALSKQQFLSINGFPNNYWGWGGEDDDIYNRLAFRGMSVSRPNAVIGKCRMIRHSRDKKNEPNPQRFDRIAHTKETMLSDGLNSLTYMVLEVQRYPLYTKITVDIGTPS
modifications: Bos Taurus GalT Y289L mutant
As to B1, the specific activity was 44 pmol/min/µg. The “Data from the determination” value (0.01 μg enzyme) came to 0.005. Also, the “Data from the determination” value (0.02 μg enzyme) is 0.011. For the same molecule, the “Data from the determination” value (0.04 μg enzyme) was 0.013. Moreover, the “Data from the determination” value (0.06 μg enzyme) is reported as 0.02. Also, where the note is “0.08 μg enzyme”, the “Data from the determination” value came to 0.027. For the same molecule, where the note is “0.1 μg enzyme”, the “Data from the determination” value came out at 0.034. Besides, the “Data from the determination” value (0.12 μg enzyme) came out at 0.039.
